Assay results taken from publication doi:10.1101/632075, “Determinants of FtsZ C-terminal linker-dependent regulation of cell wall metabolism in Caulobacter crescentus” (bioRxiv, 2019).

B1: Escherichia coli FtsZ (natural protein, E. coli, UniProt P0A9A6 1-383, looked up)
chain: MFEPMELTNDAVIKVIGVGGGGGNAVEHMVRERIEGVEFFAVNTDAQALRKTAVGQTIQIGSGITKGLGAGANPEVGRNAADEDRDALRAALEGADMVFIAAGMGGGTGTGAAPVVAEVAKDLGILTVAVVTKPFNFEGKKRMAFAEQGITELSKHVDSLITIPNDKLLKVLGRGISLLDAFGAANDVLKGAVQGIAELITRPGLMNVDFADVRTVMSEMGYAMMGSGVASGEDRAEEAAEMAISSPLLEDIDLSGARGVLVNITAGFDLRLDEFETVGNTIRAFASDNATVVIGTSLDPDMNDELRVTVVATGIGMDKRPEITLVTNKQVQQPVMDRYQQHGMAPLTQEQKPVAKVVNDNAPQTAKEPDYLDIPAFLRKQAD
notes: FtsZ of Escherichia coli, wild type; No tag is named; also called EcFtsZ; source: E. coli Rosetta(DE3)pLysS, pET21 vector, purified (anion exchange, ammonium sulfate precipitation, SEC)
B2: Caulobacter crescentus FtsZ (natural protein, C. crescentus, UniProt B8H080 1-508, looked up)
chain: MAISLSAPRTTELKPRIVVFGVGGAGGNAVNNMIEAGLEGVEFVVANTDAQQLQFAKTDRRIQLGVQITQGLGAGAHPEVGMSAAEESFPEIGEHLDGAHMVFITAGMGGGTGTGAAPIIAKCARERGILTVGVVTKPFHFEGRHRMRLADSGIQELQRYVDTLIVIPNQNLFRVANERTTFAEAFGMADQVLHSGVRSITDLMVLPGLINLDFADVRTVMTEMGKAMMGTGEGTGEDRALMAAQNAIANPLLDEVSLKGAKAVLVNVTGGMDMTLLEVDEAANAISDQVDPEANIIFGAAFDPSLEGVIRVSVVATGMDGASIAQIEPKPVSRNISAAPLIAETSRPAPQPEPARPTARYEAARPAERPVAFAPEPAPEPEIVMSAPQPEPEAELYYDEPTVAEEPRVSAAPARSVNRIVDPLVDDVAEEPLFPENNYYEERRPQKQGGFFSMFGGGRQRYEQQASAPQAQARSAQSARPQLQPIETPQADDAEDLEIPSFLRRLAN
notes: FtsZ of Caulobacter crescentus, wild type; regions: GTPase domain, C-terminal linker (CTL), C-terminal conserved peptide (CTC); No tag is named; also called CcFtsZ; WT FtsZ; source: E. coli Rosetta(DE3)pLysS, pET21 vector, purified (anion exchange, ammonium sulfate precipitation, SEC)

Target: the molecule itself
Assay: negative-stain transmission electron microscopy of polymers; 4 µM protein with 2 mM GTP for 16 minutes in 50 mM HEPES-KOH pH 7.2, 300 mM KCl, 10 mM MgCl2, 0.1 mM EDTA; spotted on carbon coated grids, uranyl formate stain

Protein | binding result
B1 | binds
B2 | binds
